Substitutions are numbered along the chain they refer to. Numbers in names are those of the source. Values belong to the binder of their own block, whether it stands above or below them.
Columns and labels:
Human Serum Albumin [1] = target: T1, Human Serum Albumin (human, UniProt P02768 25-609); experiment: ELISA on immobilized human albumin
T1 construct: ELISA: albumin coated on plates; pull-down: endogenous albumin in normal human serum; also called HSA; Human SA
Description: (§1) The FN3 proteins were also tested in an ELISA assay to determine their ability to bind to immobilized human or cynomolgous albumin. The binding of 667 nM B7 and B7 variants to human or cynomolgous albumin are illustrated in Table 7. The negative control is wt Tencon.

Cynomolgus Serum Albumin [2] = target: T2, Cynomolgus Serum Albumin (cynomolgus monkey, UniProt A2V9Z4 25-608); experiment: ELISA on immobilized cynomolgus albumin
T2 construct: ELISA: albumin coated on plates; pull-down: endogenous albumin in cynomolgus serum; also called cSA; Cyno SA
T2 sequence (A2V9Z4 25-608 limits assumed): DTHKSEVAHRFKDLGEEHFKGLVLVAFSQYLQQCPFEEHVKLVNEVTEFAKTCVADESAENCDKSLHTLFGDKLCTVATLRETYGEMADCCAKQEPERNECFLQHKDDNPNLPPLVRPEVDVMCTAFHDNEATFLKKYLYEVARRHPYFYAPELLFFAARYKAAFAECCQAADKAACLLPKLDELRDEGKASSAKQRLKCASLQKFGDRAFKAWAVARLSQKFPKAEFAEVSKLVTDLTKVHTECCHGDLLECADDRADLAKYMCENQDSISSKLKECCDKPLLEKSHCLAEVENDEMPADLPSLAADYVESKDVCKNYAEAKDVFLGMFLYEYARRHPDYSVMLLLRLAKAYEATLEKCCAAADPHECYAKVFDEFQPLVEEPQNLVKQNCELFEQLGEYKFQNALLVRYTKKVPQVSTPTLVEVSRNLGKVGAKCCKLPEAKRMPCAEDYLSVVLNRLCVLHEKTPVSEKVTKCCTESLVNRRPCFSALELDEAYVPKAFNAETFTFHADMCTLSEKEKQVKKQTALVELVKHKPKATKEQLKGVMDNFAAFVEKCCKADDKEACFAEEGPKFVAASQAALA
Description: as §1

Human Serum Albumin [3] = target: T1, Human Serum Albumin; experiment: ELISA, 667 nM FN3 protein on immobilized human albumin
Description: as §1

Cynomolgus Serum Albumin [4] = target: T2, Cynomolgus Serum Albumin; experiment: ELISA, 667 nM FN3 protein on immobilized cynomolgus albumin
Description: as §1

Human Serum Albumin [5] = target: T1, Human Serum Albumin; experiment: pull-down of endogenous albumin from human serum
Cynomolgus Serum Albumin [6] = target: T2, Cynomolgus Serum Albumin; experiment: pull-down of endogenous albumin from cynomolgus serum

T1 sequence (P02768 25-609 limits assumed): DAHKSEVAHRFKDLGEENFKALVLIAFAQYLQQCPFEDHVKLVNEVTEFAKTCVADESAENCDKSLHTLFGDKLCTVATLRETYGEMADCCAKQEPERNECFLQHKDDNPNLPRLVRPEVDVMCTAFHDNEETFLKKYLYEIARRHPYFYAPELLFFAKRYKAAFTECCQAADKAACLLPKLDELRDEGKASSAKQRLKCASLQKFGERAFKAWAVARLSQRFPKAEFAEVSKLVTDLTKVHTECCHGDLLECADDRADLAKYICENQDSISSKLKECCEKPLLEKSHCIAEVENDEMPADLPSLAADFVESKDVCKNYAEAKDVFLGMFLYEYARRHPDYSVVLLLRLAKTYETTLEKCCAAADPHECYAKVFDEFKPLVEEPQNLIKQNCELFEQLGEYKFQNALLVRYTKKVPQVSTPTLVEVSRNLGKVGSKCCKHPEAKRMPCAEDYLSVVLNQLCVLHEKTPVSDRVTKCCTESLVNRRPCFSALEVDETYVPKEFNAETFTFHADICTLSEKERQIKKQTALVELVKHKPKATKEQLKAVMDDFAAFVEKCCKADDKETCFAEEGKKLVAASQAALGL

binding result (Human Serum Albumin [1]): no binding (tested: 667 nM)
binding result (Cynomolgus Serum Albumin [2]): no binding (tested: 667 nM)
Human Albumin (RLU) (Human Serum Albumin [3]): 8350 RLU
Cyno Albumin (RLU) (Cynomolgus Serum Albumin [4]): 775 RLU
B1: wt Tencon (designed binder)
chain: LPAPKNLVVSEVTEDSLRLSWTAPDAAFDSFLIQYQESEKVGEAINLTVPGSERSYDLTGLKPGTEYTVSIYGVKGGHRSNPLSAEFTT
notes: also called wild type tencon

Human Albumin (RLU) (Human Serum Albumin [3]): 23100 RLU
Cyno Albumin (RLU) (Cynomolgus Serum Albumin [4]): 43600 RLU
B2: A10V (designed binder)
chain: MLPAPKNLVVSRVTEDSARLSWTAPDAAFDSFNIAYWEPGIGGEAIWLRVPGSERSYDLTGLKPGTEYKVWIHGVKGGASSPPLIARFTT
notes: Variant of B7; also called B7 A10V; not shown: His tag: FN3 domains were purified as His-tagged proteins

binding result (Human Serum Albumin [5]): no binding
binding result (Cynomolgus Serum Albumin [6]): no binding
Human Albumin (RLU) (Human Serum Albumin [3]): 950 RLU
Cyno Albumin (RLU) (Cynomolgus Serum Albumin [4]): 1600 RLU
B3: A10V, W71A (designed binder)
chain: B2 chain with W71A
notes: Variant of B7; not shown: His tag: FN3 domains were purified as His-tagged proteins

Human Albumin (RLU) (Human Serum Albumin [3]): 50600 RLU
Cyno Albumin (RLU) (Cynomolgus Serum Albumin [4]): 46200 RLU
B4: A10V, I41A (designed binder)
chain: B2 chain with I41A
notes: as for B3

Human Albumin (RLU) (Human Serum Albumin [3]): 4480 RLU
Cyno Albumin (RLU) (Cynomolgus Serum Albumin [4]): 9180 RLU
B5: A10V, G42A (designed binder)
chain: B2 chain with G42A
notes: as for B3

binding result (Human Serum Albumin [5]): no binding
Human Albumin (RLU) (Human Serum Albumin [3]): 250 RLU
Cyno Albumin (RLU) (Cynomolgus Serum Albumin [4]): 9200 RLU
B6: A10V, A79S (designed binder)
chain: B2 chain with A79S
notes: as for B3

Human Albumin (RLU) (Human Serum Albumin [3]): 2950 RLU
Cyno Albumin (RLU) (Cynomolgus Serum Albumin [4]): 2950 RLU
B7: A10V, A35S (designed binder)
chain: B2 chain with A35S
notes: as for B3

binding result (Human Serum Albumin [5]): no binding
binding result (Cynomolgus Serum Albumin [6]): no binding
Human Albumin (RLU) (Human Serum Albumin [3]): 2100 RLU
Cyno Albumin (RLU) (Cynomolgus Serum Albumin [4]): 2000 RLU
B8: A10V, W47A (designed binder)
chain: B2 chain with W47A
notes: as for B3

binding result (Human Serum Albumin [5]): no binding
binding result (Cynomolgus Serum Albumin [6]): no binding
Human Albumin (RLU) (Human Serum Albumin [3]): 550 RLU
Cyno Albumin (RLU) (Cynomolgus Serum Albumin [4]): 600 RLU
B9: A10V, H73A (designed binder)
chain: B2 chain with H73A
notes: as for B3

Human Albumin (RLU) (Human Serum Albumin [3]): 69800 RLU
Cyno Albumin (RLU) (Cynomolgus Serum Albumin [4]): 64400 RLU
B10: A10V, G40A (designed binder)
chain: B2 chain with G40A
notes: as for B3

Human Albumin (RLU) (Human Serum Albumin [3]): 47400 RLU
Cyno Albumin (RLU) (Cynomolgus Serum Albumin [4]): 66300 RLU
B11: A10V, R87A (designed binder)
chain: B2 chain with R87A
notes: as for B3

binding result (Human Serum Albumin [5]): no binding
binding result (Cynomolgus Serum Albumin [6]): no binding
Human Albumin (RLU) (Human Serum Albumin [3]): 1000 RLU
Cyno Albumin (RLU) (Cynomolgus Serum Albumin [4]): 2500 RLU
B12: A10V, I85A (designed binder)
chain: B2 chain with I85A
notes: as for B3

binding result (Human Serum Albumin [5]): no binding
binding result (Cynomolgus Serum Albumin [6]): no binding
Human Albumin (RLU) (Human Serum Albumin [3]): 600 RLU
Cyno Albumin (RLU) (Cynomolgus Serum Albumin [4]): 500 RLU
B13: A10V, W37A (designed binder)
chain: B2 chain with W37A
notes: as for B3

Human Albumin (RLU) (Human Serum Albumin [3]): 1020 RLU
Cyno Albumin (RLU) (Cynomolgus Serum Albumin [4]): 1150 RLU
B14: A10V, R49A (designed binder)
chain: B2 chain with R49A
notes: as for B3

binding result (Human Serum Albumin [5]): no binding
binding result (Cynomolgus Serum Albumin [6]): no binding
Human Albumin (RLU) (Human Serum Albumin [3]): 2350 RLU
Cyno Albumin (RLU) (Cynomolgus Serum Albumin [4]): 1500 RLU
B15: A10V, N33A (designed binder)
chain: B2 chain with N33A
notes: as for B3

Human Albumin (RLU) (Human Serum Albumin [3]): 15900 RLU
Cyno Albumin (RLU) (Cynomolgus Serum Albumin [4]): 42300 RLU
B16: A10V, K69A (designed binder)
chain: B2 chain with K69A
notes: as for B3

Human Albumin (RLU) (Human Serum Albumin [3]): 21700 RLU
Cyno Albumin (RLU) (Cynomolgus Serum Albumin [4]): 24100 RLU
B17: A10V, P82A (designed binder)
chain: B2 chain with P82A
notes: as for B3

Human Albumin (RLU) (Human Serum Albumin [3]): 2950 RLU
Cyno Albumin (RLU) (Cynomolgus Serum Albumin [4]): 2950 RLU
B18: A10V, S80A (designed binder)
chain: B2 chain with S80A
notes: as for B3

Human Albumin (RLU) (Human Serum Albumin [3]): 97400 RLU
Cyno Albumin (RLU) (Cynomolgus Serum Albumin [4]): 145000 RLU
B19: B7 (designed binder)
chain: B2 chain with V10A
notes: FN3 domain (Tencon27-based library clone) expressed in E. coli; also called ALB40; not shown: His tag: FN3 domains were purified as His-tagged proteins

Human Albumin (RLU) (Human Serum Albumin [3]): 107000 RLU
Cyno Albumin (RLU) (Cynomolgus Serum Albumin [4]): 73600 RLU
B20: A10V, P39A (designed binder)
chain: B2 chain with P39A
notes: as for B3
